Assay results reported in patent EP4296674A1 (Université Toulouse III - Paul Sabatier, dated 2023).

B1: HadB protein of Mycobacterium tuberculosis (untagged) (enzyme)
chain: MALREFSSVKVGDQLPEKTYPLTRQDLVNYAGVSGDLNPIHWDDEIAKVVGLDTAIAHGMLTMGIGGGYVTSWVGDPGAVTEYNVRFTAVVPVPNDGKGAELVFNGRVKSVDPESKSVTIALTATTGGKKIFGRAIASAKLA
B2: Ntrp-Esat6 fusion protein (other)
chain: MPEVVFSVDHSGSGTMYPYDVPDYASSVINFTGSSGPLVKVCGLQSTEAAECALDSDADLLGIICVPNRGGSGSGLKMTEQQWNFAGIEAAASAIQGNVTSIHSLLDEGKQSLTKLAAAWGGSGSEAYQGVQQKWDATATELNNALQNLARTISEAGQAMASTEGNVTGMFA
B3: Ntrp-HadDMtb fusion protein (other)
chain: SSVINFTGSSGPLVKVCGLQSTEAAECALDSDADLLGIICVPNRMTVPEEAQTLIGKHYRAPDHFLVGREKIREFAVAVKDDHPTHYSEPDAAAAGYPALVAPLTFLAIAGRRVQLEIFTKFNIPINIARVFHRDQKFRFHRPILANDKLYFDTYLDSVIESHGTVLAEIRSEVTDAEGKPVVTSVVTMLGEAAHHEADADATVAAIASI
B4: Ntrp-HadB fusion protein (N-terminal fragment of S. cerevisiae Trp1p fused to the N-terminal end of HadB of Mtb) (other)
chain: MPEVVFSVDHSGSGTMYPYDVPDYASSVINFTGSSGPLVKVCGLQSTEAAECALDSDADLLGIICVPNRGGSGSGLKMALREFSSVKVGDQLPEKTYPLTRQDLVNYAGVSGDLNPIHWDDEIAKVVGLDTAIAHGMLTMGIGGGYVTSWVGDPGAVTEYNVRFTAVVPVPNDGKGAELVFNGRVKSVDPESKSVTIALTATTGGKKIFGRAIASAKLA
B5: HadA of Mycobacterium tuberculosis fused to an enhanced Green Fluorescent Protein (eGFP) tag at its N-terminus (other)
chain: MALSADIVGMHYRYPDHYEVEREKIREYAVAVQNDDAWYFEEDGAAELGYKGLLAPLTFICVFGYKAQAAFFKHANIATAEAQIVQVDQVLKFEKPIVAGDKLYCDVYVDSVREAHGTQIIVTKNIVTNEEGDLVQETYTTLAGRAGEDGEGFSDGAA

How the values were obtained:
[1] = biological target: N-terminal polyHis-tagged HadD of Mycobacterium tuberculosis (Mycobacterium tuberculosis); experiment: from the HadBD crystal structure
[2] = biological target: HadB protein of Mycobacterium tuberculosis (untagged) (Mycobacterium tuberculosis)
[3] = biological target: N-terminal polyHis-tagged HadD of Mycobacterium tuberculosis (Mycobacterium tuberculosis); experiment: PDBePISA analysis of the HadBD crystal structure
[4] = biological target: B5; experiment: pull-down from M. bovis BCG on anti-GFP magnetic beads, nanoLC-MS/MS proteomics
[5] = biological target: T1, Cfp10-Ctrp fusion protein (Mycobacterium tuberculosis (Cfp10); …); experiment: split-Trp assay in M. smegmatis ΔhisA, positive control pair
T1 chain: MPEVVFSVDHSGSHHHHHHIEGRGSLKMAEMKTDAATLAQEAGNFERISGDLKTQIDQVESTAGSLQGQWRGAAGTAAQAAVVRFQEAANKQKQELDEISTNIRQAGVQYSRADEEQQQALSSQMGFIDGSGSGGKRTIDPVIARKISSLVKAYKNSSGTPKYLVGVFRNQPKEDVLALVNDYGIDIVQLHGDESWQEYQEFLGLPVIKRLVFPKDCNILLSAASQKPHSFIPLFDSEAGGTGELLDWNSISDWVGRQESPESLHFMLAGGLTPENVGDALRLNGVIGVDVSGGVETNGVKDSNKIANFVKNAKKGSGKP

[6] = biological target: T2, HadD-Ctrp fusion protein (C-terminal fragment of S. cerevisiae Trp1p fused to the C-terminal end of HadD of … (Mycobacterium tuberculosis (HadD); …); experiment: split-Trp assay in M. smegmatis ΔhisA, growth on medium without Trp
T2 chain: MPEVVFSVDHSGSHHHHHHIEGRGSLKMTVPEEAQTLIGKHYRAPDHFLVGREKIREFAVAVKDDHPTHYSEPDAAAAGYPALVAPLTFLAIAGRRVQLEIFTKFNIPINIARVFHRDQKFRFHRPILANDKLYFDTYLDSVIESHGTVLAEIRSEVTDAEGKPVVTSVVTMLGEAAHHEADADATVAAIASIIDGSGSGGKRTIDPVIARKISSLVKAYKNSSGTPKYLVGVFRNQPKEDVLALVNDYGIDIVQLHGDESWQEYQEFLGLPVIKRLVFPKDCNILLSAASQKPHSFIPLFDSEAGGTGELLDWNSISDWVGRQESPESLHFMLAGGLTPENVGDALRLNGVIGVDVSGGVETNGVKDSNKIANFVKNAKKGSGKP

[7] = biological target: T2, HadD-Ctrp fusion protein (C-terminal …); experiment: split-Trp assay in M. smegmatis ΔhisA
HadC-Ctrp fusion protein = biological target: T3, HadC-Ctrp fusion protein (Mycobacterium tuberculosis (HadC); …); experiment: split-Trp assay in M. smegmatis ΔhisA, positive control pair
T3 chain: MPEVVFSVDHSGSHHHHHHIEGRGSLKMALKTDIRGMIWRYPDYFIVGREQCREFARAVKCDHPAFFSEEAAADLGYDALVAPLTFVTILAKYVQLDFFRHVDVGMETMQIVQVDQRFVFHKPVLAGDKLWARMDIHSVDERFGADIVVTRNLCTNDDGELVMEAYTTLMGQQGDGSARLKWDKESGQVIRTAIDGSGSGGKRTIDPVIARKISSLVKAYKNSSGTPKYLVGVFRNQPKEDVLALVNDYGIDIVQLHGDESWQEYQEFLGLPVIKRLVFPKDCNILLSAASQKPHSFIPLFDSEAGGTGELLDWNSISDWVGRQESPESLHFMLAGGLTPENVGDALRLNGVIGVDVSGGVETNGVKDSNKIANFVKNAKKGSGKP

HadC (Rv0637) = biological target: T4, HadC (Rv0637) (Mycobacterium tuberculosis, UniProt P9WFJ9 1-166); experiment: pull-down from M. bovis BCG on anti-GFP magnetic beads, nanoLC-MS/MS proteomics
T4 sequence: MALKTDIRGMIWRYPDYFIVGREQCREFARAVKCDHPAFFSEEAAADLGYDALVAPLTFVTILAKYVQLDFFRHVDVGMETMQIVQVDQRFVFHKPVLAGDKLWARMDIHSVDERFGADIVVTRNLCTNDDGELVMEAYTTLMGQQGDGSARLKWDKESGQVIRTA

[8] = biological target: T5, HadD of M. bovis BCG (BCG_0547c) (Mycobacterium bovis BCG, UniProt P64726 1-166); experiment: as above
T5 sequence: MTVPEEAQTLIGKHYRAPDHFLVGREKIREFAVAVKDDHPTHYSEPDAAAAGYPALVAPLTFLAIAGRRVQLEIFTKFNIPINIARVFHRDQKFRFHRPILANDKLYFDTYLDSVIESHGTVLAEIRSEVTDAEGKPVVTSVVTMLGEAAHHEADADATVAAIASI

Work on “HadB protein of Mycobacterium tuberculosis (untagged) (enzyme)” yielded a total buried surface at each heterodimer interface [1] of 3840 A^2, a buried surface area [2] of 525 A^2 and a ΔG (PDBePISA) [2] of -5.8 kcal/mol. It also gave a surface of heterodimerization (PDBePISA) [3] of 1340 Å^2 and a ΔG of heterodimerization (PDBePISA) [3] of -11 kcal/mol.

B1: binds [4].

B2: binds [5].

B3: no binding [6].

B4: binds [7]; binds (HadC-Ctrp fusion protein).

B5: binds (HadC (Rv0637)); binds [8].
